Two proteins from US20230242956A1, “POLYPHOSPHATE KINASE MUTANT, ENGINEERED STRAIN AND APPLICATION THEREOF” (ZHEJIANG UNIVERSITY OF TECHNOLOGY, priority 2022, published 2023) can be followed below.

Substrate in series [1]: Nc1ncnc2c1ncn2[C@@H]1O[C@H](COP(=O)(O)O)[C@@H](O)[C@H]1O
The series can be described thus: Kinetic parameters of wild-type ChPPK (pure enzyme, pseudo-one-substrate kinetic model, ATP by HPLC). Type of series: biochemical, Cytophaga hutchinsonii. Particulars: other: substrate AMP, fixed PPA 1.6 g/L, AMP 0-5.0 mM, pH 7.5, 37° C. As to the method: A PPK protein sequence derived from Cytophaga hutchinsonii (ChPPK, GenBank accession number: ABG57400.1) in GenBank was optimized for E. coli codon preference and fused to a C-terminal 6His tag. The resulting recombinant sequence of the gene ChPPK with a length of 930 bp was synthesized by Tsingke Biotechnology Co., Ltd. (Beijing, China), the nucleotide sequence is shown in SEQ ID NO: 1, and the amino acid sequence of the encoded protein is shown in SEQ ID NO: 2.
(2) Pure enzyme: 5 mL of the crude enzyme solution was diluted with 40 mL of potassium phosphate buffer (20 mM, pH 7.2), and then applied to a HisTrap HP purification column of GE Healthcare (10 mL column, pre-washed with a pH 7.2, 20 mM potassium phosphate buffer containing 500 mM NaCl). […] The concentration of the pure enzyme was determined by Beyotime BCA Protein Assay Kit(P0012), and the amount of the pure enzyme used in the following examples was calculated by protein content.
0.4 mg of the crude enzyme solution prepared by the method in Example 2 or 0.05 mg of the pure enzyme, polyphosphoric acid (PPA) at a final concentration of 1.6 g/L, adenosine phosphate (AMP) at a final concentration of 2.25 mM, and MgCl2 at a final concentration of 10 mM were added to 10 mL of 50 mM potassium phosphate buffer (pH 7.5). […] The ATP content in the solution was determined by HPLC method. […]
(§1) The wild-type Ecoli.BL21(DE3)-ChPPK constructed by the method of Example 1 and the engineered strain Ecoli.BL21(DE3)-ChPPK/A79G/S106C/I108F/L285P constructed by the method of Example 6 were used to prepare pure enzymes by the method of Example 2. Km and Kcat were calculated by pseudo-one-substrate kinetic model. […]

Substrate in series [2]: Nc1ncnc2c1ncn2[C@@H]1O[C@H](COP(=O)(O)O)[C@@H](O)[C@H]1O
As to the kind of experiment: Kinetic parameters of mutant ChPPK/A79G/S106C/I108F/L285P (pure enzyme, pseudo-one-substrate kinetic model, ATP by HPLC). The series is classed as biochemical, Cytophaga hutchinsonii. Particulars: other: substrate AMP, fixed PPA 1.6 g/L, AMP 0-5.0 mM, pH 7.5, 37° C. On the procedure: (2) Pure enzyme: 5 mL of the crude enzyme solution was diluted with 40 mL of potassium phosphate buffer (20 mM, pH 7.2), and then applied to a HisTrap HP purification column of GE Healthcare (10 mL column, pre-washed with a pH 7.2, 20 mM potassium phosphate buffer containing 500 mM NaCl). The resulting purification column was eluted with 100 mL of washing buffer (a pH7.2, 20 mM potassium phosphate buffer containing 500 mM sodium chloride and 50 mM imidazole) at a rate of 0.5 mL/min to remove the absorbed protein impurities, and then eluted with an elution buffer (a pH7.2, 20 mM potassium phosphate buffer containing 500 mM sodium chloride and 50 mM imidazole) at a speed of 0.5 mL/min to collect an elution solution containing the target protein. Then the elution solution containing the target protein was dialyzed in a dialysis bag (the MWCO of the dialysis bag was 14 KDa) with a pH7.2 of 20 mM potassium phosphate buffer for 48h, and the retentate was taken as pure enzyme. The concentration of the pure enzyme was determined by Beyotime BCA Protein Assay Kit(P0012), and the amount of the pure enzyme used in the following examples was calculated by protein content.
0.4 mg of the crude enzyme solution prepared by the method in Example 2 or 0.05 mg of the pure enzyme, polyphosphoric acid (PPA) at a final concentration of 1.6 g/L, adenosine phosphate (AMP) at a final concentration of 2.25 mM, and MgCl2 at a final concentration of 10 mM were added to 10 mL of 50 mM potassium phosphate buffer (pH 7.5). The reaction solution was incubated at 37° C. for 5 min, and then 10 mL of 0.2 M phosphoric acid solution was added to terminate the reaction. The ATP content in the solution was determined by HPLC method. […]
as §1

B1: Cytophaga hutchinsonii polyphosphate kinase (ChPPK), wild-type, C-terminal 6His tag, SEQ ID NO: 2 (Cytophaga hutchinsonii ATCC 33406) (protein)
chain: MATDFSKLSKYVETLRVKPKQSIDLKKDFDTDYDHKMLTKEEGEELLNLGISKLSEIQEKLYASGTKSVLIVFQAMDAAGKDGTVKHIMTGLNPQGVKVTSFKVPSKIELSHDYLWRHYVALPATGEIGIFNRSHYENVLVTRVHPEYLLSEQTSGVTAIEQVNQKFWDKRFQQINNFEQHISENGTIVLKFFLHVSKKEQKKRFIERIELDTKNWKFSTGDLKERAHWKDYRNAYEDMLANTSTKQAPWFVIPADDKWFTRLLIAEIICTELEKLNLTFPTVSLEQKAELEKAKAELVAEKSSDHHHHHH
As usually defined, the Km is the substrate concentration at which the rate is half of its maximum. By kcat is commonly meant the maximal rate divided by the concentration of active sites. In general, kcat/Km refers to the second-order rate constant that governs catalysis at low substrate concentration. For the protein B1, in series [1], the Km worked out at 1.66 ± 0.10 mM, the kcat worked out at 1.01 ± 0.05 s⁻¹ and the kcat/Km was 610 M⁻¹ s⁻¹.

B2: Cytophaga hutchinsonii polyphosphate kinase (ChPPK) mutant A79G/S106C/I108F/L285P (parent SEQ ID NO: 2) (Cytophaga hutchinsonii ATCC 33406; … (protein)
chain: MATDFSKLSKYVETLRVKPKQSIDLKKDFDTDYDHKMLTKEEGEELLNLGISKLSEIQEKLYASGTKSVLIVFQAMDAGGKDGTVKHIMTGLNPQGVKVTSFKVPCKFELSHDYLWRHYVALPATGEIGIFNRSHYENVLVTRVHPEYLLSEQTSGVTAIEQVNQKFWDKRFQQINNFEQHISENGTIVLKFFLHVSKKEQKKRFIERIELDTKNWKFSTGDLKERAHWKDYRNAYEDMLANTSTKQAPWFVIPADDKWFTRLLIAEIICTELEKLNLTFPTVSPEQKAELEKAKAELVAEKSSDHHHHHH
Regarding B2, in series [2], the Km came to 1.67 ± 0.18 mM, the catalytic constant (kcat) came out at 16.3 ± 1.78 s⁻¹ and the kcat/Km worked out at 9780 M⁻¹ s⁻¹.
